Results reported in the supplement of paper PMC9170038.

Test system: MS2 coat protein
Assay: apparent KD of MS2 coat protein; designed switch direction (-1 OFF switch, 1 ON switch): -1; higher = weaker reporter binding
Method in brief: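 An oligonucleotide input, 200 uM small-molecule ligand, or no input was present during titration of SNAP-549-labelled MS2 coat protein, which was doubled from 0.7 or 1.5 nM to 3 µM. Designed RNA switches had been transcribed on Illumina chips by stalled E. coli RNA polymerase. Apparent KD per design is the median over clusters of curves fitted to normalised cluster fluorescence.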

[1] = Eterna round: R95, input ligand: FMN 200 uM
[2] = Eterna round: R95, input ligand: microRNA oligo, concentration not stated
[3] = Eterna round: R95, input ligand: none
[4] = input ligand: microRNA oligo, concentration not stated

Sequence	apparent KD of MS2 coat protein (input ligand: FMN 200 uM)	apparent KD of MS2 coat protein (input ligand: none)	apparent KD of MS2 coat protein [1]	apparent KD of MS2 coat protein [2]	apparent KD of MS2 coat protein [3]	apparent KD of MS2 coat protein [4]
UGUGUGAGACAGGAUAUGCCGGUUGUGUUGCUGGUAGAAGGGUCUACAUGAGGAUCACCCAUGUGGCCGGUUGG [Ex6 #80] (Eterna round: R97, puzzle: Exclusion 6)	19.1 nM	17.3 nM				
AUAAUGUGAGGAUAUCAGUAGUAUUGCCUCGGCAAUACUACUGAGAAGGCACAUGAGGAUCACCCAUGUGAUCA [E4/2-B2] (Eterna round: R97, puzzle: Exclusion 4)	29.3 nM	772 nM				
GGUACUAACACGAGAGUGUUAGUACUAUAAGCUUGUGUUACAUGAGGAUCACCCAUGUCCUCAUAGGCUCGUCUUAA [Mat - Sensor v3 - Turn-off var 2 - D81] (puzzle: Sensor v3, turn-off variant 2)			82.4 nM	61 nM	82.4 nM	
UUGUUAUAUGUAGGAUAUGCGUAUUAUUAUUAUGCAGAAGGACAUGAGGAUCACCCAUGUGUAUUAUUAUUAUAUAUUAUAUAU [Title] (Eterna round: R96, puzzle: Exclusion NG 1)	41.3 nM	21.1 nM				15.5 nM
GUGGGUUACAUGAGGAUCACCCAUGUAUAGUGGGAAGAGAUAUAGGAUAUAAUAUAAAAAUUAUAUUAGAAGGAUAGAGACUAG [AK ExNG3-1.2] (Eterna round: R96, puzzle: Exclusion NG 3)	491 nM	505 nM				285 nM
UCUUACUGAGGAUAUACAUAGAUUUACAUGAGGAUCACCCAUGUUCCUCUAAGUAUAUAUGUAGAAGGCAGAAGAU [Mat - Exclusion 5 - JL Mod - D44] (Eterna round: R97, puzzle: Exclusion 5)	329 nM	235 nM				
GGUACUAUCACCUGAGUGGUAGUGCAAUAAGCUUGUGAUACAUGAGGAUCACCCAUGUCCUCAUUUGCUCGUCUUAU [JL-sv3-2.26 JL mod] (puzzle: Sensor v3, turn-off variant 2)			533 nM	516 nM	839 nM	
UCGUUCCGUGUAGGAUAUUGGCCUCCCUUGGGCCGAGAAGGACAUGAGGAUCACCCAUGUAUGUUAUUAUCGCGCGUGGCGCAU [Design 88] (Eterna round: R96, puzzle: Exclusion NG 1)	126 nM	18.4 nM				13.8 nM
AGUGUGUUAGGAUAUCGCAUAUGCUGGAGGAGGUGGAGUUACGAGAAGGAACAUGAGGAUCACCCAUGUAGGAC [JR_Exclu4_Sub050] (puzzle: Exclusion 4)				25.7 nM		
AGCUGUGGCCGAGGAUAUCUAAUAACUCAAACCGAAAUAUAAUCGGACAUGAGGAUCACCCAUGUAGAGAAGGCGGUCUCAGCA [Eli eng2 - 063] (Eterna round: R96, puzzle: Exclusion NG 2)						69.8 nM
CAGUACUGAGGAUAUACAUGAGGAUCACCCAUGUGUUCCAGCUAGGAAGCUAGCAAAAGUAGAAGGCAGUACUG [salish99_ex3_r3_073] (puzzle: Exclusion 3)				26.6 nM		
GAGAGAGCCAUAGGAUAUGCCCGCCCGCUUGCGGCAGAAGGAUGUUGACAUGAGGAUCACCCAUGUGGAUCGCCCAUGUUUGUG [All by luck] (Eterna round: R96, puzzle: Exclusion NG 1)	604 nM	286 nM				191 nM
CUGAGCAGACGGAGAUCCAACAUGAGGAUCACCCAUGUCUCAAAAGCUUUUUGCUUGUCUUACCCUCCUCUGUUCUC [Isceeren] (puzzle: Sensor v3, turn-off variant 1)			18.1 nM	122 nM	15.7 nM	
AAAUUAGCAAGUAGGUCCGACAUGAGGAUCACCCAUGUAAGCUAAUCUUACGCUGCAUGAGAGUGCGCUCGUCUUAA [Sensor-V1 #19] (Eterna round: R97, puzzle: Sensor, turn-off variant 1)	360 nM	515 nM				
AGAGUACAUGAGGAUCACCCAUGUUAGGAUAUGCAUAAUAAGAAGAAGAGAAGAGAGAGCAGAAGGAACAAGAG [Ex 1 M1] (puzzle: Exclusion 1)			42.5 nM	48 nM	57.8 nM	
GGGAUGUCAGGAUAUACAUGAGGAUCACCCAUGUAGAGAUAAGAUAGGGAAAGAGUAGGUAGAAGGGACGAGAG [JR_Exclu3_Sub044] (puzzle: Exclusion 3)			22 nM	19.9 nM	24.5 nM	
AGAGAAUAGUCAGGAUAUCUUAAUAGAAAGAAUAGAGAAGGGACACAUGAGGAUCACCCAUGUGAAGUCUUGAGACUACAUGGU [Prohibition 30 - Jieux - Exclusion NG 1] (Eterna round: R96, puzzle: Exclusion NG 1)	108 nM	35.3 nM				27.4 nM
AAAUUCUGAGGAUAUCGAUGUUUGUACAUGAGGAUCACCCAUGUCCUUUUUAUUUUUUCCCGAGAAGGCAGUGUAU [JR_E5_Sub099] (puzzle: Exclusion 5)				36.6 nM		
AGUUGUUGUUUCCGUUCUUACAUGAGGAUCACCCAUGUUUCUUGUCGUGCUCGCGUUGCUCGUCUGGCUACCUGUUG [salish99_TOv1_r3_068] (puzzle: Sensor v3, turn-off variant 1)			33.9 nM	34 nM	43.8 nM	
GCCGGCUAUGUAGGAUAUGGGCCUGAUACGGGUCUAGAAGGACAUGAGGAUCACCCAUGUAUCGUGCGCUGGUGGCUUGCCGGU [-30, -30 kcal and 19% A] (Eterna round: R96, puzzle: Exclusion NG 1)	389 nM	141 nM				119 nM
UUUAAAAUUUCAAUCUUCGCUGGCAAACUUGCGCCAGCUACAUGAGGAUCACCCAUGUUUUUUGCCCGUCUUAUUCU [Inisti] (puzzle: Sensor v3, turn-off variant 2)			24.3 nM	170 nM	26.7 nM	
GAAAACGCAGAGGAUAUUUCAGAUCAAAGCUGCAAAGAAGGCUGCACAUGAGGAUCACCCAUGUGGUCUUCAAU [Mat - Exclusion 6 - JL Mod - D8] (Eterna round: R97, puzzle: Exclusion 6)	315 nM	25.8 nM				
AGUACUAACACGAAAGUGUUAGUACUAUAAGCUUGUGAAACAUGAGGAUCACCCAUGUCCUCAUAAGCUCGUCUUAU [Mat - Sensor v3 - Turn-off var 2 - D102] (puzzle: Sensor v3, turn-off variant 2)			17.3 nM	780 nM	17 nM	
CAGUACUGAGGAUAUACAUGAGGAUCACCCAUGUGUUCCAGCUAGGAAACUAGCAAAAGUAGAAGGUAGUACUG [salish99_ex3_r3_086 (!)] (puzzle: Exclusion 3)				14.7 nM		
UAGAUGGGAGGAUAUACGUAGAUGCAGGUUCGUGUGGUGCUACAUGAGGAUCACCCAUGUAGAAGGCCCGUCUU [Resubmit R3 JL-ex2-2.29] (Eterna round: R97, puzzle: Exclusion 2)	77.4 nM	18.4 nM				
